Measured values taken from paper PMC11090974, “Structural basis for the distinct roles of non-conserved Pro116 and conserved Tyr124 of BCH domain of yeast p50RhoGAP” (Cellular and Molecular Life Sciences: CMLS, 2024).
Several values for one entry are separate records, joined by “and”; a condition that tells them apart may be missing. Equal values may be shown once.

Biological target: the molecule itself
Assay: AUC; sedimentation velocity, 2.4 mg/ml, absorbance at 280 nm, 40,000 rpm, 24 °C, analysed with Sedfit

Protein	stoichiometry N
BCH domain of S. pombe p50RhoGAP, wild type (YBCH 1-156 a.a) (domain or fragment, UniProt Q9P3B1 1-156, looked up, S. pombe homolog of p50RhoGAP (SPAC1565.02c protein), BCH domain, residues 1-156; The methods tell cloning, expression and purification only for the P116A mutant (parent construct (His)6-SlyD YBCH in pET32a); also called WT YBCH; yeast BCH) MEHDLERLCFIGGYDNDNDKVIVVVTKNLELFKKYDDINLIKEAYNHVHKLIQKDERYTAVFFAHDSTVFSYLGLSLKAYYGMDYYLHKNVKAVYVIHTDWMSKVAIRTLLSIASPKFTRKFRYLNSISDLNKYIPLSHLKLPPIVYEFDRNVEPA	2
P116A mutant of the BCH domain of S. pombe p50RhoGAP (YBCH 1-156 a.a) (domain or fragment, UniProt Q9P3B1 1-156, looked up, S. pombe homolog of p50RhoGAP (SPAC1565.02c protein), BCH domain, residues 1-156, Pro116 to Ala; SlyD tag cleaved with PreScission protease; also called P116A-YBCH; YBCH P116A; source: E. coli BL21 (DE3), purified (Ni-NTA, cation exchange, gel filtration)) MEHDLERLCFIGGYDNDNDKVIVVVTKNLELFKKYDDINLIKEAYNHVHKLIQKDERYTAVFFAHDSTVFSYLGLSLKAYYGMDYYLHKNVKAVYVIHTDWMSKVAIRTLLSIASAKFTRKFRYLNSISDLNKYIPLSHLKLPPIVYEFDRNVEPA	2 and 4
